Here are results for 37 sequences from the supplement of paper PMC9732359.

This data set can be described thus: protein stability index of a GFP-peptide fusion (yeast GPS) (PSI 1-4); higher = more stable; sorted into four equal gates, so the index is relative within each strain. An outline of the steps:
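Tiled 17-residue yeast protein peptides were fused downstream of GFP in a plasmid that also expresses Cherry, and the pooled library was carried in yeast. Mid-log cultures in leucine-free medium were sorted into four equal gates by GFP/Cherry fluorescence ratio, and plasmids from each gate were PCR-amplified and Illumina-sequenced, with reads assigned to strains by barcodes. The protein stability index for each peptide was each gate's read frequency times its gate number, summed.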

± gives the uncertainty stated by the source.

In the case of DATRVFVNGVWHGVHRN [RPB2], the protein stability index by setting is: (doa10∆) 3.04 ± 0.093; (pdr5∆) 3.35 ± 0.071; (san1∆) 3.28 ± 0.048; (ubr1∆) 3.27 ± 0.066.

As to FSFTEPAQKDSSVVSEP [YOR098C/NUP1], the protein stability index runs as follows: (doa10∆) 3.02 ± 0.097; (pdr5∆) 3.11 ± 0.1; (san1∆) 2.81 ± 0.12; (ubr1∆) 3.26 ± 0.094.

Consider SLHNTEKIMENKYPELL [AAR2], for which the protein stability index (doa10∆) is 2.94 ± 0.052, the protein stability index (pdr5∆) amounted to 3.18 ± 0.058, the protein stability index (san1∆) stood at 3 ± 0.038 and the protein stability index (ubr1∆) was determined as 2.86 ± 0.034.

KDNGMLIIDGQIIFGVV [RPO21] returned a protein stability index (doa10∆) of 1.95 ± 0.12, a protein stability index (pdr5∆) of 1.79 ± 0.076, a protein stability index (san1∆) of 1.61 ± 0.21 and a protein stability index (ubr1∆) of 2.73 ± 0.12.

Sequence ADGQTLFAGYTDNVIRV [ASC1] displayed a protein stability index (doa10∆) of 1.85 ± 0.055, a protein stability index (pdr5∆) of 2.16 ± 0.052, a protein stability index (san1∆) of 2.22 ± 0.063 and a protein stability index (ubr1∆) of 2.35 ± 0.057.

Take SMSEEFKYVSVRYEEKR [BRR2]: the protein stability index reads like this: (doa10∆) 3.41 ± 0.2; (pdr5∆) 3.38 ± 0.14; (san1∆) 3.12 ± 0.22.

For the sequence IVQELLDKNLIKLVKQN [RPC34], the protein stability index came out at 1.97 ± 0.057 (doa10∆), 1.99 ± 0.058 (pdr5∆), 2.62 ± 0.068 (san1∆) and 2.57 ± 0.052 (ubr1∆).

In the case of IEKMSTIVQLCKKKEMS [YIL149C/MLP2], the protein stability index runs as follows: (doa10∆) 1.8 ± 0.059; (pdr5∆) 1.78 ± 0.055; (san1∆) 1.59 ± 0.099; (ubr1∆) 1.76 ± 0.051.

Regarding PQDDDSQSKMMSSQISS [MTR3], the protein stability index reads like this: (doa10∆) 3.14 ± 0.074; (pdr5∆) 3.17 ± 0.071; (san1∆) 3.15 ± 0.043; (ubr1∆) 3.27 ± 0.053.

As for EDALYLGKRSILAAAHR [PRE2], the protein stability index came out at 3.42 ± 0.062 (doa10∆), 3.33 ± 0.06 (pdr5∆), 3.16 ± 0.067 (san1∆) and 3.31 ± 0.051 (ubr1∆).

Consider LKERAKNISSQLDSKLM [YGR119C/NUP57], for which the protein stability index by setting is: (doa10∆) 1.2 ± 0.2; (pdr5∆) 1.46 ± 0.22; (san1∆) 1.56 ± 0.26; (ubr1∆) 1.28 ± 0.13.

For the sequence HDSILHSRILPKKALKV [RRP43], the protein stability index reads like this: (doa10∆) 2.08 ± 0.038; (pdr5∆) 2.04 ± 0.041; (san1∆) 1.68 ± 0.079; (ubr1∆) 1.75 ± 0.034.

With LSEAWRCWKANIPWDVP [PRP8], the protein stability index runs as follows: (doa10∆) 2.15 ± 0.11; (pdr5∆) 2.16 ± 0.098; (san1∆) 1.1 ± 0.15; (ubr1∆) 3.42 ± 0.15.

As to LIENCKQVLDVDPVYKD [FAS2], the protein stability index (doa10∆) turned out to be 3.14 ± 0.17, the protein stability index (pdr5∆) is 3.21 ± 0.12, the protein stability index (san1∆) stood at 3.33 ± 0.076 and the protein stability index (ubr1∆) was found to be 3.37 ± 0.068.

In the case of AIGYEPLSLTHRDKNKM [DIS3], the protein stability index by setting is: (doa10∆) 2.83 ± 0.058; (pdr5∆) 2.9 ± 0.061; (san1∆) 2.88 ± 0.063; (ubr1∆) 2.93 ± 0.042.

As for KQIVHDSGRGAPLAKVV [RPL2A], the protein stability index amounted to 2.16 ± 0.22 (doa10∆), 2.16 ± 0.18 (pdr5∆) and 2.41 ± 0.17 (ubr1∆).

Take LTSNISSLVRSCGEEEF [REC8]: the protein stability index is 3.33 ± 0.17 (doa10∆), 2.78 ± 0.13 (pdr5∆), 2.21 ± 0.13 (san1∆) and 3.25 ± 0.13 (ubr1∆).

As to GQQSVEGKRIAFGFVDR [RPO21], the protein stability index worked out at 3.25 ± 0.2 (doa10∆), 3.01 ± 0.2 (pdr5∆), 3.44 ± 0.11 (san1∆) and 3.52 ± 0.14 (ubr1∆).

On to QTKDSVKEIVLPLFYDL [IRR1], for which the protein stability index stood at 2.42 ± 0.06 (doa10∆), 2.4 ± 0.057 (pdr5∆), 2.6 ± 0.05 (san1∆) and 2 ± 0.035 (ubr1∆).

As to ASVVPSASSLVITALKE [RPL12A], the protein stability index (doa10∆) was determined as 2.09 ± 0.044, the protein stability index (pdr5∆) turned out to be 2.3 ± 0.051, the protein stability index (san1∆) turned out to be 2.12 ± 0.071 and the protein stability index (ubr1∆) was 1.96 ± 0.045.

For the sequence IDVTFTKVNNQLIKVAV [RPL9A], the protein stability index amounted to 2.23 ± 0.068 (doa10∆), 1.87 ± 0.048 (pdr5∆), 1.75 ± 0.087 (san1∆) and 2.44 ± 0.036 (ubr1∆).

Turning to MAFEASAAAAGNRNSSS [BRR2], the protein stability index is, setting by setting: (doa10∆) 3.12 ± 0.11; (pdr5∆) 3.1 ± 0.11; (san1∆) 2.35 ± 0.12; (ubr1∆) 3.14 ± 0.11.

For LQIKRDVLDDLYRKLQR [CSE2], the protein stability index is, setting by setting: (doa10∆) 2.94 ± 0.072; (pdr5∆) 3.11 ± 0.069; (san1∆) 3.01 ± 0.085; (ubr1∆) 3.35 ± 0.055.

For LVEKVYARFKNDFFPGE [ITC1], the protein stability index is, setting by setting: (doa10∆) 3.47 ± 0.091; (pdr5∆) 3.36 ± 0.1; (san1∆) 3.05 ± 0.058; (ubr1∆) 3.25 ± 0.077.

The sequence IGVLNNSSESDEEESND [RPN13] gave a protein stability index (doa10∆) of 3.52 ± 0.2, a protein stability index (pdr5∆) of 2.4 ± 0.25 and a protein stability index (ubr1∆) of 3.37 ± 0.095.

With RARKDRMRVSVLEKYEV [SSN3], the protein stability index runs as follows: (doa10∆) 2.02 ± 0.11; (pdr5∆) 2.65 ± 0.089; (san1∆) 2.19 ± 0.13; (ubr1∆) 1.97 ± 0.039.

The sequence NLVKEKEALQNNIFKEF [SMC1] registered a protein stability index (doa10∆) of 3.51 ± 0.12, a protein stability index (pdr5∆) of 3.06 ± 0.12 and a protein stability index (san1∆) of 2.99 ± 0.12.

Turning to ELFKGYLADDIDADSLE [RPL5], the protein stability index came to 3.02 ± 0.086 (doa10∆), 3.21 ± 0.076 (pdr5∆), 3.23 ± 0.064 (san1∆) and 3.17 ± 0.087 (ubr1∆).

On to SNIGNNSINNNNIKNGT [YDL088C/ASM4], for which the protein stability index runs as follows: (doa10∆) 2.72 ± 0.047; (pdr5∆) 2.85 ± 0.057; (san1∆) 2.85 ± 0.047; (ubr1∆) 2.65 ± 0.042.

Turning to ADDAISMHLLKDWTDTF [SRB8], the protein stability index runs as follows: (doa10∆) 3.12 ± 0.056; (pdr5∆) 2.94 ± 0.058; (san1∆) 2.94 ± 0.044; (ubr1∆) 2.95 ± 0.065.

For TTSEKQEVTNEAPFLTS [GAL11], the protein stability index by setting is: (doa10∆) 3.2 ± 0.093; (pdr5∆) 3.35 ± 0.076; (san1∆) 3.14 ± 0.11; (ubr1∆) 3.36 ± 0.067.

Turning to MGKRVDFSARTVISGDP [RPO21], the protein stability index reads like this: (doa10∆) 2.98 ± 0.087; (pdr5∆) 3.27 ± 0.12; (san1∆) 3.08 ± 0.14; (ubr1∆) 3.1 ± 0.19.

IMDNFLERTAIELKTDW [RPN1]: the protein stability index stood at 3 ± 0.2 (doa10∆), 2.99 ± 0.18 (pdr5∆), 3.07 ± 0.12 (san1∆) and 2.56 ± 0.15 (ubr1∆).

Turning to VCLMQISTRERDYLVDT [RRP6], the protein stability index runs as follows: (doa10∆) 3.3 ± 0.22; (pdr5∆) 3.4 ± 0.16; (san1∆) 3.49 ± 0.088; (ubr1∆) 2.99 ± 0.089.

MAGLSFDNYQRNNFLAE [PUP1]: the protein stability index (doa10∆) came out at 3.61 ± 0.17, the protein stability index (pdr5∆) turned out to be 3.58 ± 0.1, the protein stability index (san1∆) was 3.29 ± 0.084 and the protein stability index (ubr1∆) is 3.39 ± 0.092.

As to DPPIIIFINYKQTADWL [PRP28], the protein stability index came out at 1.43 ± 0.031 (doa10∆), 1.61 ± 0.048 (pdr5∆), 1.9 ± 0.072 (san1∆) and 1.95 ± 0.042 (ubr1∆).

On to MRILPRETDPLVYNMTS [RPT4], for which the protein stability index is 3.07 ± 0.078 (doa10∆), 2.85 ± 0.065 (pdr5∆), 3.18 ± 0.06 (san1∆) and 2.73 ± 0.057 (ubr1∆).
